Results reported in PMC10803776 (2024).

Target: Mycobacterium tuberculosis DnaK, wild type, full length (Mycobacterium tuberculosis, UniProt P9WMJ9 1-625)
Assay: ITC

B1: Mycobacterium tuberculosis GrpE, wild type, full length (natural protein)
chain: MTDGNQKPDGNSGEQVTVTDKRRIDPETGEVRHVPPGDMPGGTAAADAAHTEDKVAELTADLQRVQADFANYRKRALRDQQAAADRAKASVVSQLLGVLDDLERARKHGDLESGPLKSVADKLDSALTGLGLVAFGAEGEDFDPVLHEAVQHEGDGGQGSKPVIGTVMRQGYQLGEQVLRHALVGVVDTVVVDAAELESVDDGTAVADTAENDQADQGNSADTSGEQAESEPSGS
Work on B1 yielded a Kd of 360 nM.
